In experiment [1] the target is ICOS-CD3 III fusion protein (human). In words: cell-based or functional assay.
In experiment [2] the target is full length human wild type ICOS (human) (UniProt Q9Y6W8). Description: cell-based or functional assay.

Here are results for 1 substance from US10047138.

Sequence of ICOS-CD3 III fusion protein (human) (chain, as listed by the source limits assumed): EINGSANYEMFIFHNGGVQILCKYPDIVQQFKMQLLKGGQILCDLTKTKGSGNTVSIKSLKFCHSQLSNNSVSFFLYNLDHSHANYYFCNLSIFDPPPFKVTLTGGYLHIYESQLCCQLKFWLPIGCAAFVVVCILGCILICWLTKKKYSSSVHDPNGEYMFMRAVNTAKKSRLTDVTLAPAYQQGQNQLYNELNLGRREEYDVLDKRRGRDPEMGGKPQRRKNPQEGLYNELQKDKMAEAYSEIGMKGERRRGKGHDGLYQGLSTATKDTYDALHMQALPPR
Sequence of UniProt Q9Y6W8 (Q9Y6W8 21-199): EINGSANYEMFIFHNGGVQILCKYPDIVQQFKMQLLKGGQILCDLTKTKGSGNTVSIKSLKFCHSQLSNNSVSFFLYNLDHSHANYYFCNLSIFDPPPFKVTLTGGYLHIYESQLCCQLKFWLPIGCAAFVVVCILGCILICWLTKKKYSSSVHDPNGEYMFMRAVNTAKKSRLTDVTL

Turning to “B7RP1-Fc protein (from UniProt O75144 19-253) (Fc fusion)”, the IL-2 secretion (RLU), difference between clusters 1 (anti-CD3 alone) and 3 (anti-CD3 plus B7RP1-Fc) in experiment [1] was greater than 200 fold; in experiment [2] it was less than 8 fold. The IL-2 secretion by Jurkat cells, 2.5 µg/mL anti-CD3 antibody plus 50 µg/mL B7RP1-Fc against anti-CD3 antibody alone in experiment [1] is greater than 170 fold; in experiment [2], less than 17 fold.
